The test addresses IL-13 receptor (IL-4Rα and IL-13Rα1) (UniProt P24394).

Consider one substance from paper PMC5653676.

Sequence of UniProt P24394 (P24394 26-825, chain 1 of 2): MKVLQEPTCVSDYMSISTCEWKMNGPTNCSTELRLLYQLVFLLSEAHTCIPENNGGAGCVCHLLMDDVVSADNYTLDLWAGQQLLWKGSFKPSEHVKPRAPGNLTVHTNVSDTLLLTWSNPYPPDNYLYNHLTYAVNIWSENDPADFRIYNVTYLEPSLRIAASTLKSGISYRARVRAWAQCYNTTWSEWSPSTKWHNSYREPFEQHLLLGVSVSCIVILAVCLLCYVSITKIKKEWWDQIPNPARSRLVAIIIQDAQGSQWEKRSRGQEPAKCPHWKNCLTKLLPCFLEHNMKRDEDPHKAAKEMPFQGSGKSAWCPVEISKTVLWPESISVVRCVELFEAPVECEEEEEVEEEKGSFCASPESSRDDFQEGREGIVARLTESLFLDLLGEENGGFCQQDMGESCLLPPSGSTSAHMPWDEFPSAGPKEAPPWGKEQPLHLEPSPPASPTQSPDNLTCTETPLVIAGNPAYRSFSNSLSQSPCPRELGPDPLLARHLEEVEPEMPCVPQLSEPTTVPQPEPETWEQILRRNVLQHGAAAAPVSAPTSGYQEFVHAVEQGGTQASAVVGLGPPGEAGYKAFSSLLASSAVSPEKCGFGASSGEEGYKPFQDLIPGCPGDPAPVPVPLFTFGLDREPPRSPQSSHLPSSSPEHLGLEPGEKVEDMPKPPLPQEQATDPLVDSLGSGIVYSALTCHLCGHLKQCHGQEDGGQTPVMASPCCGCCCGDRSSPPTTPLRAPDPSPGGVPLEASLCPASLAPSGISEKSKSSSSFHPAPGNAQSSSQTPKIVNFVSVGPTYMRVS
Sequence of UniProt P24394 (P78552 22-427, chain 2 of 2, further chain): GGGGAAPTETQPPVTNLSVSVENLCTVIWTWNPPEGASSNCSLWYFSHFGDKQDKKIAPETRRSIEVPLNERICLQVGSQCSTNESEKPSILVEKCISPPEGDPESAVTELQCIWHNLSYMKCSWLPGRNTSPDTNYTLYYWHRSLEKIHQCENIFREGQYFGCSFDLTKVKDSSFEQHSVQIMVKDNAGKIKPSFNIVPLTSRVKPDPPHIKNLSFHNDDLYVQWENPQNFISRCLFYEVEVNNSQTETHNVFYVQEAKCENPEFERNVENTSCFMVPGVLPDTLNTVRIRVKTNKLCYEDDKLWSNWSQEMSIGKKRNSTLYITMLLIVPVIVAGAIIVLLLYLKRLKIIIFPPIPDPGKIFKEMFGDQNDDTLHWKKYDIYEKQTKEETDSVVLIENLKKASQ

Take “human recombinant interleukin 13 (from UniProt P35225 25-146) (ligand)”: the SEAP reporter (P STAT6/cEBP-SEAP) in HEK-293 cells co-transfected with IL-13Rα1, IL-4Rα and STAT6, 48 h with different physiological IL-13 concentrations; fold induction worked out at 33 fold.
